# Results reported in patent US20250339531A1, “DUX4 POLYPEPTIDES AND NUCLEIC ACIDS FOR TREATING INFLAMMATORY AND AUTOIMMUNE CONDITIONS” (Fred Hutchinson Cancer Center, priority 2021, published 2025).
# Assays:
# Assay in all cases: anti-FLAG co-IP LC-MS, exp 4, +Dox +IFNG
# [1] = target: Alpha-actinin-4 (Homo sapiens) (UniProt O43707)
# [2] = target: 40S ribosomal protein S6 (Homo sapiens) (UniProt P62753)
# [3] = target: Protein disulfide-isomerase (Homo sapiens) (UniProt P07237)
# [4] = target: Alpha-enolase (Homo sapiens) (UniProt P06733)
# Chain of Alpha-enolase (Homo sapiens) (P06733 2-434 limits assumed): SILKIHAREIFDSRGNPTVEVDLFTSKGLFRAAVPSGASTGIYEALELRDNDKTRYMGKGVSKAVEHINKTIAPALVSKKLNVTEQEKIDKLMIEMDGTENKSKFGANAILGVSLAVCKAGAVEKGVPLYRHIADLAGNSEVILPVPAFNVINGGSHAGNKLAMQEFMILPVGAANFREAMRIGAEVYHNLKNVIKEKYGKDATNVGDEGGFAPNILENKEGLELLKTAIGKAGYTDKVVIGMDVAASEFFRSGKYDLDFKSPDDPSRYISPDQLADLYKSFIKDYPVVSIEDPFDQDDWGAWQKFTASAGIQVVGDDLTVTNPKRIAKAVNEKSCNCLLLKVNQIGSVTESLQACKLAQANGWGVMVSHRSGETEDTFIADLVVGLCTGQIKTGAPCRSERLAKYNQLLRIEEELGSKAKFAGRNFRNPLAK
# [5] = target: Ubiquitin carboxyl-terminal hydrolase 11 (Homo sapiens) (UniProt P51784)
# Filamin-C (Homo sapiens) = Filamin-C (Homo sapiens) (UniProt Q14315)
# [6] = target: 60S ribosomal protein L5 (Homo sapiens) (UniProt P46777)
# [7] = target: Elongation factor 1-delta (Homo sapiens)
# [8] = target: Procollagen-lysine,2-oxoglutarate 5-dioxygenase 2 (Homo sapiens) (UniProt O00469)
# [9] = target: cAMP-dependent protein kinase type I-alpha regulatory subunit (Homo sapiens) (UniProt P10644)
# Talin-1 (Homo sapiens) = Talin-1 (Homo sapiens) (UniProt Q9Y490)
# Chain of Talin-1 (Homo sapiens) (Q9Y490 whole entry): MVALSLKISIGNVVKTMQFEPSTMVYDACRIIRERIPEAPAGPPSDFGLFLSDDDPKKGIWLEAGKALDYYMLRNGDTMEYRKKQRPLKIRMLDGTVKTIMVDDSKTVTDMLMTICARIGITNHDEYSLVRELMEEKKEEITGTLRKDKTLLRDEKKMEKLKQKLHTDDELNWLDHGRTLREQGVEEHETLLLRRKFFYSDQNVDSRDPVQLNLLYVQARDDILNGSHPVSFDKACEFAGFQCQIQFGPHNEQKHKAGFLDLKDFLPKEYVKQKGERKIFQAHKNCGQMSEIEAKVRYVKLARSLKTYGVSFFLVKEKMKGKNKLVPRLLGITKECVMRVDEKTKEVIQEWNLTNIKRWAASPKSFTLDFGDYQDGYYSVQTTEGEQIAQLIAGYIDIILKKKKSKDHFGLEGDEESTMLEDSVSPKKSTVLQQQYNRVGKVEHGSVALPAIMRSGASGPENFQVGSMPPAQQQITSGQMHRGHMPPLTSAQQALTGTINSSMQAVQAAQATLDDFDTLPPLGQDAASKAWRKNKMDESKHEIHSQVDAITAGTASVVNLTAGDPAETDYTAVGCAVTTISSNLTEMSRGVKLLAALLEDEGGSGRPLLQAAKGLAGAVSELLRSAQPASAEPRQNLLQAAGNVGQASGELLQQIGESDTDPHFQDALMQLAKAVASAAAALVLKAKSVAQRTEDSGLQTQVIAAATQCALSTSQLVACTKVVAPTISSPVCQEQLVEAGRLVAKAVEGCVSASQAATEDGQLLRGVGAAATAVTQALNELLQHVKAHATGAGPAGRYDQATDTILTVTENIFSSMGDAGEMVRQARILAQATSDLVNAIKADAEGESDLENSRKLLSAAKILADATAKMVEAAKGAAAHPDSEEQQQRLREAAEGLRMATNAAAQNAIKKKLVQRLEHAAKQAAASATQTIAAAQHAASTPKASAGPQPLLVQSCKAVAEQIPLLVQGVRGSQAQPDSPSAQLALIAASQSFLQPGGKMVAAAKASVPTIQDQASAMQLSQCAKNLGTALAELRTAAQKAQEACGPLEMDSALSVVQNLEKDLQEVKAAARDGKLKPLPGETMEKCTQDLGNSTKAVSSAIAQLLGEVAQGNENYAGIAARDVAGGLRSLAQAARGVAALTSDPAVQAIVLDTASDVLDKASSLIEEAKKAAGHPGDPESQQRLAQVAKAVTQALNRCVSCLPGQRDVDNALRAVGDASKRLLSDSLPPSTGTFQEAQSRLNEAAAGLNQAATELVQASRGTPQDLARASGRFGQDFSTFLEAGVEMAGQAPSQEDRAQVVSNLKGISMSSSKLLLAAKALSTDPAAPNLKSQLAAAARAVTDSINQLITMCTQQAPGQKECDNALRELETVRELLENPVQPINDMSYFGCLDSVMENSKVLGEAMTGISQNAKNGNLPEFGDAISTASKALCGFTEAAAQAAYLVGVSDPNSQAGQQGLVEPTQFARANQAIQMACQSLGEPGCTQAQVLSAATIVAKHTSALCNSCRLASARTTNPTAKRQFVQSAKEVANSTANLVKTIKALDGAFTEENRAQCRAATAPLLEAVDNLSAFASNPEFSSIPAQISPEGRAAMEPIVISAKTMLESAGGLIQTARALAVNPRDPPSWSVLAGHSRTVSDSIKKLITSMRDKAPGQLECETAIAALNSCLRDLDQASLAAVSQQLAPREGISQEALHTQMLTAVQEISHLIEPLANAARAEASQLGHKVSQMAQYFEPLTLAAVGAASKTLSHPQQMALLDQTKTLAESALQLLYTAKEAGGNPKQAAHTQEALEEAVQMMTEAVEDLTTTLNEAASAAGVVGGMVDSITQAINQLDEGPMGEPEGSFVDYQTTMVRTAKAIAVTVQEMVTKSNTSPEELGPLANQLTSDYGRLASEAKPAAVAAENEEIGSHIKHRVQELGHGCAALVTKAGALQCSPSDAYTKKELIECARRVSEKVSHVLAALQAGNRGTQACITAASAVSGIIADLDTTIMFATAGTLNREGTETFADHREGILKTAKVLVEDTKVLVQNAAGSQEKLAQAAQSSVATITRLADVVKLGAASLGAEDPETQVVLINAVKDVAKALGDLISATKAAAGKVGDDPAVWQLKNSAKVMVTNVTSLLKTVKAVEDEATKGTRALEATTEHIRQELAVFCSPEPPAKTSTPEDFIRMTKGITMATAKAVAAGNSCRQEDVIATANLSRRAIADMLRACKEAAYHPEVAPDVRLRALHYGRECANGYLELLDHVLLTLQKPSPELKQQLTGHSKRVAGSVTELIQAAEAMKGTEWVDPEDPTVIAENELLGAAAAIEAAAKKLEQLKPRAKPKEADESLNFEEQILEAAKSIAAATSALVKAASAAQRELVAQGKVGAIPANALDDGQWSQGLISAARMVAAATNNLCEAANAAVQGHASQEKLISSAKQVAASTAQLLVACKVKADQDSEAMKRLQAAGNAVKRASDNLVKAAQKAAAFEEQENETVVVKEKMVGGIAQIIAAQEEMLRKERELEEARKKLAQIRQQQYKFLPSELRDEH
# [10] = target: 40S ribosomal protein S8 (Homo sapiens) (UniProt P62241)
# [11] = target: Transportin-1 (Homo sapiens) (UniProt Q92973)
# [12] = target: 4F2 cell-surface antigen heavy chain (Homo sapiens) (UniProt P08195)
# [13] = target: Heat shock cognate 71 kDa protein (Homo sapiens) (UniProt P11142)
# [14] = target: Histone acetyltransferase type B catalytic subunit (Homo sapiens) (UniProt O14929)
# Drebrin (Homo sapiens) = Drebrin (Homo sapiens) (UniProt Q16643)
# [15] = target: Reticulon-4 (Homo sapiens) (UniProt Q9NQC3)
# [16] = target: 60S ribosomal protein L11 (Homo sapiens) (UniProt P62913)
# [17] = target: Tubulin beta-6 chain (Homo sapiens) (UniProt Q9BUF5)
# [18] = target: Heat shock protein HSP 90-alpha (Homo sapiens) (UniProt P07900)
# [19] = target: Plasminogen activator inhibitor 1 (Homo sapiens) (UniProt P05121)
# Chain of Plasminogen activator inhibitor 1 (Homo sapiens) (P05121 24-402 limits assumed): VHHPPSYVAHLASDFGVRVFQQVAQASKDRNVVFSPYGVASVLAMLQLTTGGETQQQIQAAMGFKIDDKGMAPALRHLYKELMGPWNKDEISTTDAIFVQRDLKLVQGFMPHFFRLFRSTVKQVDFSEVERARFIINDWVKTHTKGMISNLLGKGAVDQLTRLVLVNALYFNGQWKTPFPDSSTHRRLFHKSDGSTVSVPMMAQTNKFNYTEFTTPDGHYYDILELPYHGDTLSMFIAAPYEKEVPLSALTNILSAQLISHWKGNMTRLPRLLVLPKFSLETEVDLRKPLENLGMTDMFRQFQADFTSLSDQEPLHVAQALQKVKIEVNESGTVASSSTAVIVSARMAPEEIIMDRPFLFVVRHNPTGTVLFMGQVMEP
# [20] = target: Insulin-like growth factor 2 mRNA-binding protein 2 (Homo sapiens) (UniProt F8W930)
# Chain of Insulin-like growth factor 2 mRNA-binding protein 2 (Homo sapiens) (F8W930 entry or part of it limits assumed, form in doubt): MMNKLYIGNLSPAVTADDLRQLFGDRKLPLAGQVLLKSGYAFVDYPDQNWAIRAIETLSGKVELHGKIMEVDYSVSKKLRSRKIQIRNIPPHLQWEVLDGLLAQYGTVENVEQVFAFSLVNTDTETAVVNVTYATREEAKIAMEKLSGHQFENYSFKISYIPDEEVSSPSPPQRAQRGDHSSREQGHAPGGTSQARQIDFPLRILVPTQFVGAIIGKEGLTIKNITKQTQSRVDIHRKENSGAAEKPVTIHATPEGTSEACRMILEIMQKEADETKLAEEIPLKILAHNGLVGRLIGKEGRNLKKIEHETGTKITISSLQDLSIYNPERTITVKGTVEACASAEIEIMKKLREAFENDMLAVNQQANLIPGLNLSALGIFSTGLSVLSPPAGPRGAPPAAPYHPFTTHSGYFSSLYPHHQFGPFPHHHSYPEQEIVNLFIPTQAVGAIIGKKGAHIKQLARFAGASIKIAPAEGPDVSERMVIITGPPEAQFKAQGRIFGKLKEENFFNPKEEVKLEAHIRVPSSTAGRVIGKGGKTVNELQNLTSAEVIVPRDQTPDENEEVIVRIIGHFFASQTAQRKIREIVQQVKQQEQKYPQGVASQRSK
# Filamin-A (Homo sapiens) = Filamin-A (Homo sapiens) (UniProt P21333)
# [21] = target: Dolichyl-diphosphooligosaccharide--protein glycosyltransferase subunit 1 (Homo sapiens) (UniProt P04843)
# Chain of Dolichyl-diphosphooligosaccharide--protein glycosyltransferase subunit 1 (Homo sapiens) (P04843 24-607 limits assumed): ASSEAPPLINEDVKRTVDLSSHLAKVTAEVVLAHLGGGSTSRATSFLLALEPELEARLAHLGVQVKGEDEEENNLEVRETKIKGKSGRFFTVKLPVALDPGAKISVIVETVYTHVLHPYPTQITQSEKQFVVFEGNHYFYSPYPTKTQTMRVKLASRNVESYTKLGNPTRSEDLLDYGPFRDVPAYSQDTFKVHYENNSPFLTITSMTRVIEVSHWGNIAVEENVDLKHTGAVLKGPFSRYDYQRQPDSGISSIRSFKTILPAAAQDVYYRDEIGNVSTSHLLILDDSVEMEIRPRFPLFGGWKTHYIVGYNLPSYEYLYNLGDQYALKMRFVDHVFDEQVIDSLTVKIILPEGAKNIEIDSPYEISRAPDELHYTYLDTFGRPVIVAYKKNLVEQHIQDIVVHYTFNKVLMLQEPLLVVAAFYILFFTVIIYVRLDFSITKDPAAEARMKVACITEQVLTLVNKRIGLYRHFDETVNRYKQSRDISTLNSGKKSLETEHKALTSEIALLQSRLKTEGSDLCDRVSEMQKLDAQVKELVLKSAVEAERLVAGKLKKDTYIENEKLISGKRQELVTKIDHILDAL
# [22] = target: Guanine nucleotide-binding protein G(i) subunit alpha-2 (Homo sapiens) (UniProt P04899)
# [23] = target: Tubulin beta-2A chain (Homo sapiens) (UniProt Q13885)
# [24] = target: T-complex protein 1 subunit gamma (Homo sapiens) (UniProt P49368)
# [25] = target: AP-2 complex subunit alpha-1 (Homo sapiens) (UniProt O95782)
# [26] = target: Heat shock protein HSP 90-beta (Homo sapiens) (UniProt P08238)
# [27] = target: Myosin regulatory light chain 12A (Homo sapiens) (UniProt J3QRS3)
# [28] = target: Histone-binding protein RBBP7 (Homo sapiens) (UniProt Q16576)
# [29] = target: WD repeat-containing protein 1 (Homo sapiens) (UniProt O75083)
# [30] = target: Heterogeneous nuclear ribonucleoprotein H (Homo sapiens) (UniProt G8JLB6)
# [31] = target: Importin subunit alpha-5 (Homo sapiens) (UniProt P52294)
# [32] = target: 60S acidic ribosomal protein P0 (Homo sapiens) (UniProt P05388)
# [33] = target: Endonuclease domain-containing 1 protein (Homo sapiens) (UniProt O94919)
# Chain of Protein disulfide-isomerase (Homo sapiens) (P07237 18-508 limits assumed): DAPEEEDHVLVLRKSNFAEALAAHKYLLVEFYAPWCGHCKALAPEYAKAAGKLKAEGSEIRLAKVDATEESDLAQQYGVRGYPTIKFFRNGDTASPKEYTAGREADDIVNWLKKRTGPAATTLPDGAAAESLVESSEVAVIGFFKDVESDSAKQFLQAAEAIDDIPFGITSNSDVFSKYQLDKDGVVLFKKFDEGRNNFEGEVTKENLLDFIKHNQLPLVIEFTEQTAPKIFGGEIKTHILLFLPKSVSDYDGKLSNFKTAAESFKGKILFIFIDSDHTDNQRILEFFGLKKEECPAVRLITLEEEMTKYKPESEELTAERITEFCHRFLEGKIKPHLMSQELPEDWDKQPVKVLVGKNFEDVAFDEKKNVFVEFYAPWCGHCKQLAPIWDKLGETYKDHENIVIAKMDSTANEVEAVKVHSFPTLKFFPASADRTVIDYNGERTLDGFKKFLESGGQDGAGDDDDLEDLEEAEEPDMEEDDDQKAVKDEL
substance,measurement,setting,value
i3XFLAG-NLS-CTDaa154-424,PSMs,[1],46 PSMs
same,PSMs,[2],2 PSMs
same,PSMs,[3],14 PSMs
same,PSMs,[4],2 PSMs
same,PSMs,[5],2 PSMs
same,PSMs,Filamin-C (Homo sapiens),12 PSMs
same,PSMs,[6],19 PSMs
same,PSMs,[7],11 PSMs
same,PSMs,[8],7 PSMs
same,PSMs,[9],3 PSMs
same,PSMs,Talin-1 (Homo sapiens),3 PSMs
same,PSMs,[10],2 PSMs
same,PSMs,[11],3 PSMs
same,PSMs,[12],2 PSMs
same,PSMs,[13],105 PSMs
same,PSMs,[14],9 PSMs
same,PSMs,Drebrin (Homo sapiens),33 PSMs
same,PSMs,[15],6 PSMs
same,PSMs,[16],3 PSMs
same,PSMs,[17],46 PSMs
same,PSMs,[18],10 PSMs
same,PSMs,[19],3 PSMs
same,PSMs,[20],2 PSMs
same,PSMs,Filamin-A (Homo sapiens),10 PSMs
same,PSMs,[21],2 PSMs
same,PSMs,[22],11 PSMs
same,PSMs,[23],99 PSMs
same,PSMs,[24],2 PSMs
same,PSMs,[25],2 PSMs
same,PSMs,[26],10 PSMs
same,PSMs,[27],62 PSMs
same,PSMs,[28],5 PSMs
same,PSMs,[29],11 PSMs
same,PSMs,[30],3 PSMs
same,PSMs,[31],2 PSMs
same,PSMs,[32],36 PSMs
same,PSMs,[33],2 PSMs
